In PMC5828395 (Genes & Development, 2018) one finds Kd data, which are given here for two molecules.

Where no end group is shown, it is not given here.

Test [1] has as its target GAS41 YEATS domain (amino acids 15–159) (human) (UniProt O95619). Description: ITC.
The target of test [2] is GAS41 YEATS domain (amino acids 15–159) (human, UniProt O95619 15-159). The experiment in a line: ITC. For orientation: In ITC the heat of successive injections is recorded.

In general, Kd refers to the concentration at which binding is half-saturated.

Chain of GAS41 YEATS domain (amino acids 15–159) (human) (O95619 15-159): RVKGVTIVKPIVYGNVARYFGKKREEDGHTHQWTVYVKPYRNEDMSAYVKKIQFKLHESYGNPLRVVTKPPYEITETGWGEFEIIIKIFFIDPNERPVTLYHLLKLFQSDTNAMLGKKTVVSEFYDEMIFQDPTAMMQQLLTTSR
Chain of GAS41 YEATS domain (amino acids 15–159) (O95619 15-159): as above

For “H3_(15–39)K27ac peptide (from UniProt P68431 16-40)”, in test [1], the Kd amounted to 32.7 µM.

B1: H3_(1–15)K14ac peptide (peptide, UniProt P68431 2-16, looked up)
peptide: ARTKQTARKSTGGK(Ac)A
In turn, B1 displayed an equilibrium dissociation constant (Kd) in test [2] of 13 µM.
